No end group written: not given here. *: point of attachment. Biotin = O=C1N[C@H]2[C@H](CS[C@H]2CCCCC(=O)*)N1; TTDS = trioxatridecan-succinamic acid spacer
Experiments:
[1] = molecular target: PCDH15-CD1 C-terminal peptide (biotin-TTDS-…) (mouse); test: SPR; harmonin fragments or full-length harmonin-a1 with C-terminal peptides; Fig. S10 and data not shown
[2] = molecular target: PCDH15-CD2 C-terminal peptide (biotin-TTDS-…) (mouse); test: as above
[3] = molecular target: PCDH15-CD3 C-terminal peptide (biotin-TTDS-…) (mouse); test: as above
[4] = molecular target: T1, whirlin-NTR-PDZ1-Hp1 (aa residues 2-265) (mouse, UniProt Q80VW5-1 2-265); test: SPR; ProteOn XPR 36; N-terminally biotinylated peptides captured on a Neutravidin NLC sensor chip, whirlin fragments flowed as analytes at 20 μL/min for 2 min; 250 mM NaCl, 50 mM Tris pH 7.5, 0.5 mM TCEP; steady-state fit Req = (Rmax*C)/(Kd+C); mean of three experiments; Figure 4B shows the responses at 10 μM; settings: both partners purified
T1 construct: extra 7 aa at the N-terminus of all recombinant proteins of the study; whirlin (long isoform, L-whirlin), residues 2-265: NTR (with HHD1), PDZ1 and hairpin Hp1; The methods call the 2-265 construct whirlin-NTR-PDZ1; also called NTR-PDZ1-Hp1 whirlin fragment; Nter-PDZ1-Hp1; source: E. coli BL21 (DE3) codonPlus-RIPL, purified (Glutathione Sepharose 4B, GST removed by TEV proteinase, SEC)
T1 sequence: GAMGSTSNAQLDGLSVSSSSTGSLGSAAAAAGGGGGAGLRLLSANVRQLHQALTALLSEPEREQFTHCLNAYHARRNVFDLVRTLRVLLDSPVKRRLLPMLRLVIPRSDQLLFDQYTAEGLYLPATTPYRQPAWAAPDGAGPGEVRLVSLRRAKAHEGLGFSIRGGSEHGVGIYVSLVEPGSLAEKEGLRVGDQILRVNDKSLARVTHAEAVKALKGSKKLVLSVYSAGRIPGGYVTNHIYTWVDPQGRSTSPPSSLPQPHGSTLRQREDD

[5] = molecular target: T1, whirlin-NTR-PDZ1-Hp1 (aa residues 2-265); test: as above; settings: both partners purified; remark: listed apart in the source
[6] = molecular target: T2, whirlin PDZ1-Hp (aa residues 137-246) (mouse, UniProt Q80VW5-1 137-246); test: as above; settings: both partners purified
T2 construct: extra 7 aa at the N-terminus of all recombinant proteins of the study; whirlin, residues 137-246: PDZ1 with its hairpin extension Hp1; also called PDZ1 + Hp1; whirlin PDZ1-Hp1 fragment
T2 sequence: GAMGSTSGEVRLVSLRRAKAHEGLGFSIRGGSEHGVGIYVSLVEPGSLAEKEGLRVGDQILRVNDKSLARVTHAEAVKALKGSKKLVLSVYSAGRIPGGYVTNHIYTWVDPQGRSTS

[7] = molecular target: T3, whirlin-PDZ1 (aa residues 137-228) (mouse, UniProt Q80VW5-1 137-228); test: as above; settings: both partners purified
T3 construct: extra 7 aa at the N-terminus of all recombinant proteins of the study; whirlin, residues 137-228: PDZ1 domain; also called whirlin PDZ1 domain alone; source: E. coli BL21 (DE3) codonPlus-RIPL, purified (Glutathione Sepharose 4B, GST removed by TEV proteinase, SEC)
T3 sequence: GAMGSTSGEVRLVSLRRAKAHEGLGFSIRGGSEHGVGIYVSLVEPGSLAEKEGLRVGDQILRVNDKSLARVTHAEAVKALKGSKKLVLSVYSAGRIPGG

[8] = molecular target: T4, whirlin-PDZ2 (aa residues 272-368) (mouse, UniProt Q80VW5-1 272-368); test: as above; settings: both partners purified
T4 construct: extra 7 aa at the N-terminus of all recombinant proteins of the study; whirlin, residues 272-368: PDZ2 domain; source: E. coli BL21 (DE3) codonPlus-RIPL, purified (Glutathione Sepharose 4B, GST removed by TEV proteinase, SEC)
T4 sequence: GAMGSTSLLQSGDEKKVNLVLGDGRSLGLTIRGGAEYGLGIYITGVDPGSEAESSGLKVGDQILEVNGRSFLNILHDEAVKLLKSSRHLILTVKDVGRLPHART

[9] = molecular target: T5, whirlin-PDZ3 (aa residues 821-915) (mouse, UniProt Q80VW5-1 821-915); test: as above; settings: both partners purified
T5 construct: extra 7 aa at the N-terminus of all recombinant proteins of the study; whirlin, residues 821-915: PDZ3 domain, common to L- and S-whirlin; also called whirlin PDZ3 domain
T5 sequence: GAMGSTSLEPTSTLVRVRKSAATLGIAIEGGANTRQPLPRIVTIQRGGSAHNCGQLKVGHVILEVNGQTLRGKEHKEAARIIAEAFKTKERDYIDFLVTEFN

[10] = molecular target: T6, whirlin-HHD1 (aa residues 30-121) (mouse, UniProt Q80VW5-1 30-121); test: as above; settings: both partners purified
T6 construct: extra 7 aa at the N-terminus of all recombinant proteins of the study; whirlin, residues 30-121: harmonin-homology domain 1 (HHD1); also called HHD1 domain alone; source: E. coli BL21 (DE3) codonPlus-RIPL, purified (Glutathione Sepharose 4B, GST removed by TEV proteinase, SEC)
T6 sequence: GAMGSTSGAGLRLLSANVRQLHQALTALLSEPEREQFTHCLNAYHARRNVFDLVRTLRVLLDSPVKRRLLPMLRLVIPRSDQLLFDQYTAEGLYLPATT

[11] = molecular target: T7, whirlin-NTR (aa residues 2-147) (mouse, UniProt Q80VW5-1 2-147); test: as above; settings: both partners purified
T7 construct: extra 7 aa at the N-terminus of all recombinant proteins of the study; also called entire NTR of whirlin (containing the HHD1 domain); source: E. coli BL21 (DE3) codonPlus-RIPL, purified (Glutathione Sepharose 4B, GST removed by TEV proteinase, SEC)
T7 sequence: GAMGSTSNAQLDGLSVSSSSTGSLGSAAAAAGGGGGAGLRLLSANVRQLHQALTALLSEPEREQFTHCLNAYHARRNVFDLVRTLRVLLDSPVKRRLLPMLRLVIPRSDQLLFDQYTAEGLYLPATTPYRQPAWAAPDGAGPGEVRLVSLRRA

CDH23 C-terminal peptide = molecular target: T8, CDH23 C-terminal peptide (Mus musculus, UniProt Q99PF4)
T8 chain: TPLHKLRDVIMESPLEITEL

[12] = molecular target: T9, PCDH15-CD1 C-terminal peptide (biotin-TTDS-GIDVQPHSQSTSL) (mouse); test: SPR; harmonin fragments or full-length harmonin-a1 with C-terminal peptides; Fig. S10 and data not shown; settings: both partners purified
T9 construct: C-terminal 13 aa of protocadherin-15 isoform CD1, including the PBM; source: synthetic peptide (Eurogentec); not shown: biotin, N-terminal, kept
T9 peptide: {Biotin-TTDS}-GIDVQPHSQSTSL

[13] = molecular target: T10, PCDH15-CD2 C-terminal peptide (biotin-TTDS-GANSEQYNTAL) (mouse); test: as above; settings: both partners purified
T10 construct: C-terminal 11 aa of protocadherin-15 isoform CD2, including the PBM; source: synthetic peptide (Eurogentec); not shown: biotin, N-terminal, kept
T10 peptide: {Biotin-TTDS}-GANSEQYNTAL

[14] = molecular target: T11, PCDH15-CD3 C-terminal peptide (biotin-TTDS-MGPWNSLHIPMTKL) (mouse); test: as above; settings: both partners purified
T11 construct: C-terminal 14 aa of protocadherin-15 isoform CD3, including the PBM; source: synthetic peptide (Eurogentec); not shown: biotin, N-terminal, kept
T11 peptide: {Biotin-TTDS}-MGPWNSLHIPMTKL

Q: “PDZ domains of harmonin in tandem association” was tested. Which Kd [1] did it give?
A: > 200 µM

Q: And the Kd [2]?
A: > 200 µM

Q: And the Kd [3]?
A: > 200 µM

B1: CDH23 C-terminal peptide (biotin-TTDS-VIMESPLEITEL) (peptide)
peptide: {Biotin-TTDS}-VIMESPLEITEL
notes: C-terminal residues of cadherin-23, including the PBM; source: synthetic peptide (Eurogentec); not shown: biotin, N-terminal, kept
Q: For B1, which Kd [4] is on record?
A: ~20 µM

Q: And the Kd [5]?
A: 11.3 µM

Q: And the Kd [6]?
A: 64 µM

Q: What about the Kd [7] of the same molecule?
A: 141 µM

Q: What about the Kd [8] of the same molecule?
A: > 1000 µM

Q: And the Kd [9]?
A: 4.3 µM

Q: What about the Kd [10] of the same molecule?
A: > 1000 µM

Q: What about the Kd [11] of the same molecule?
A: > 1000 µM

B2: whirlin PDZ3 (protein)
chain: TSTLVRVRKSAATLGIAIEGGANTRQPLPRIVTIQRGGSAHNCGQLKVGHVILEVNGQTLRGKEHKEAARIIAEAFKTKERDYIDFLVTE
Q: How did the Kd (CDH23 C-terminal peptide) turn out when B2 was run?
A: ~4 µM

B3: harmonin-PDZ3 (aa residues 738-849) (domain or fragment)
chain: DPYSMFSPEQIAGKDVRLLRIKKEGSLDLALEGGVDSPVGKVVVSAVYEGGAAERHGGVVKGDEIMAINGKIVTDYTLAEAEAALQKAWNQGGDWIDLVVAVCPPKEYDDEL
Q: How did the Kd [12] turn out when B3 was run?
A: > 200 µM

Q: And the Kd [13]?
A: > 200 µM

Q: What about the Kd [14] of the same molecule?
A: > 200 µM

B4: full-length harmonin-a1 (natural protein)
chain: MDRKVAREFRHKVDFLIENDAEKDYLYDVLRMYHQTMDVAVLVGDLKLVINEPNRLPLFDAIRPLIPLKHQVEYDQLTPRRSRKLKEVRLDRLHPEGLGLSVRGGLEFGCGLFISHLIKGGQADSVGLQVGDEIVRINGYSISSCTHEEVINLIRTKKTVSIKVRHIGLIPVKSSPEESLKWQYVDQFVSESGGVRGGLGSPGNRTTKEKKVFISLVGSRGLGCSISSGPIQKPGIFVSHVKPGSLSAEVGLETGDQIVEVNGIDFTNLDHKEAVNVLKSSRSLTISIVAGAGRELFMTDRERLEEARQRELQRQELLMQKRLAMESNKILQEQQEMERQRRKEIAQKAAEENERYRKEMEQISEEEEKFKKQWEEDWGSKEQLILPKTITAEVHPVPLRKPKSFGWFYRYDGKFPTIRKKAKEKKKAKYDSLQDLRKNKKELEFEQKLYKEKEEMLEKEKQLKINRLAQEVSETEREDLEESEKTQYWVERLCQTRLEQISSAENEIPEMTTGPPPPPPSVSPLAPPLRRFAGGIHLHTTDLDDIPLDMFYYPPKTPSALPVMPHPPSVNSPSKVPAPPVLPSSGHVSSSSSPWVQRTPPPIPIPPPPSIPTQDLTPTRPLPSALEEALGNHPFRTGDPGHPADDWEANTHSGKPSSSPTTERSFPPAPKTFCPSPQPPRGPGVSTISKPVMVHQEHNFVYRPAVKSEVLPQEMLKRMVVYQTAFRQDFRKYEEGFDPYSMFSPEQIAGKDVRLLRIKKEGSLDLALEGGVDSPVGKVVVSAVYEGGAAERHGGVVKGDEIMAINGKIVTDYTLAEAEAALQKAWNQGGDWIDLVVAVCPPKEYDDELSSLPSSAAESPQLARKQLEAYEPVCRHGFFLQLEPTNLLLKSRERNQTDPSWRPASSAPSP
Q: For B4, which Kd [12] is on record?
A: > 200 µM

Q: And the Kd [13]?
A: > 200 µM

Q: And the Kd [14]?
A: > 200 µM

Reference: publication PMC7532178, “Interaction of protocadherin-15 with the scaffold protein whirlin supports its anchoring of hair-bundle lateral links in cochlear hair cells” (Scientific Reports, 2020)
